Reference: PMC7658359 (2020)

Key:
Test in all cases: ITC
OsChz1-C mutant 3M = OsChz1-C mutant 3M (rice (Oryza sativa))
OsChz1-C mutant 2M = OsChz1-C mutant 2M (rice (Oryza sativa))
OsChz1-C mutant 1M = OsChz1-C mutant 1M (rice (Oryza sativa))

B1: Arabidopsis histone H2A (HTA1)-H2B (HTB1) dimer (complex)
chain 1: MAGRGKTLGSGGAKKATSRSSKAGLQFPVGRIARFLKAGKYAERVGAGAPVYLAAVLEYLAAEVLELAGNAARDNKKTRIVPRHIQLAVRNDEELSKLLGDVTIANGGVMPNIHNLLLPKKAGASKPQED
chain 2: MAPRAEKKPAEKKTAAERPVEENKAAEKAPAEKKPKAGKKLPPKEAGDKKKKRSKKNVETYKIYIFKVLKQVHPDIGISSKAMGIMNSFINDIFEKLAQESSKLARYNKKPTITSREIQTAVRLVLPGELAKHAVSEGTKAVTKFTSS
For B1, the Kd (OsChz1-C mutant 3M) was 0.146 µM, the Kd (OsChz1-C mutant 2M) was 0.259 µM and the Kd (OsChz1-C mutant 1M) was 0.15 µM.
